Experimental data taken from patent publication US20050048572A1 (Genentech, published 2005).

How the values were obtained:
Human VEGF 165 [1] = biological target: T1, Human VEGF 165 (human, UniProt P15692 27-191); assay: SPR (BIAcore-3000), apparent Kd from koff/kon, VEGF165 immobilised, 37 C
T1 construct: mature; The 165-residue isoform without signal peptide; made in E. coli as in Simmons & Yansura 1996
Protocol: (§1) A CM-5 biosensor chip (Biacore, Inc.) was activated according to the manufacturer's instructions for amine coupling. […] Unreacted groups were blocked with 1 M ethanolamine. […] The kinetics of IgG variants binding to immobilized VEGF were measured with 2-fold serial dilutions beginning with 500 nM IgG in running buffer (PBS, 0.05% Tween, 0.01% sodium azide) at a flow rate of 20 μl/min (see FIG. 12). Binding measurements were carried out at 37° C. Regeneration of the chip after each cycle was with 20 mM HCl, followed by washing, an injection of 100 mM Tris pH 8.0, and additional washing.
(§2) The kinetic curves were fit to a 1:1 Langmuir binding model using BIAcore evaluation software version 3, which calculated association (kₒₙ) and dissociation (koff) rates. An apparent equilibrium constant, Kd, was calculated from koff/kₒₙ for each variant (Table 7).

Human VEGF 165 [2] = biological target: T1, Human VEGF 165; assay: SPR (BIAcore-3000), VEGF165 immobilised on CM-5 chip, IgG in solution, 37 C, 1:1 Langmuir fit
Protocol: as §1, §2

T1 sequence (P15692 other isoform, or with tags, fused parts or gaps): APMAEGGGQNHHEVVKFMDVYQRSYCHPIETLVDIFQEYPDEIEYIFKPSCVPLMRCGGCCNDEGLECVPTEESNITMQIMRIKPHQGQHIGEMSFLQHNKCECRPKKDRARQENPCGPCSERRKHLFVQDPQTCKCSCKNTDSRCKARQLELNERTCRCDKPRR

Kd (Human VEGF 165 [1]): 0.25 nM
koff (Human VEGF 165 [2]): 5.9e-06 s⁻¹
kon (Human VEGF 165 [2]): 23000 M⁻¹ s⁻¹
B1: anti-VEGF antibody VNERK, full-length, wild type hinge, produced in E. coli (antibody, V domains shown)
VH: EVQLVESGGGLVQPGGSLRLSCAASGYTFTNYGINWVRQAPGKGLEWVGWINTYTGEPTYAADFKRRFTFSLDTSKSTAYLQMNSLRAEDTAVYYCAKYPHYYVNERKSHWYFDVWGQGTLVTVSS
VL: DIQLTQSPSSLSASVGDRVTITCSASQDISNYLNWYQQKPGKAPKVLIYFTSSLHSGVPSRFSGSGSGTDFTLTISSLQPEDFATYYCQQYSTVPWTFGQGTKVEIKR
notes: Full-length aglycosylated human IgG1 made in E. coli; also called VNERK wild type; VNERK hinge wild type
